The results in this text go back to PMC8596991 (Methods in molecular biology (Clifton, N.J.), 2020).

The target of this test is T1, Rrp41/Rrp45 heterodimer (S. cerevisiae, UniProt P46948 1-246; Q05636 1-305).
T1 sequence (looked up) 1: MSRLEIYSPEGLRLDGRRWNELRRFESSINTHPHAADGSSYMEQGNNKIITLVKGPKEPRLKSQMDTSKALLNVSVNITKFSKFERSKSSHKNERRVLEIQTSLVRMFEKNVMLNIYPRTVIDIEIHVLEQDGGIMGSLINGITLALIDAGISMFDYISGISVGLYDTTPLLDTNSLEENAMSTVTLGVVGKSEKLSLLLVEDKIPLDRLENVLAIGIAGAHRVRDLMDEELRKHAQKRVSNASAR
T1 sequence (looked up) 2: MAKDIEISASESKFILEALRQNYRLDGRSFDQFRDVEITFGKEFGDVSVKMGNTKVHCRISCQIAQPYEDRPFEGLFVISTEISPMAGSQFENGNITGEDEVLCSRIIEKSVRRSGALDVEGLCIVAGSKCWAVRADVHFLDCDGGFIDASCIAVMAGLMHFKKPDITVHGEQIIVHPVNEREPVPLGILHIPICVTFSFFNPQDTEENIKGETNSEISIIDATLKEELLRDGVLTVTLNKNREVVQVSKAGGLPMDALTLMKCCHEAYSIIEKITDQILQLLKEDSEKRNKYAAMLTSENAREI
Description: SEC.

B1: Rrp4 (natural protein, S. cerevisiae, UniProt P38792 1-359, looked up)
chain: MSEVITITKRNGAFQNSSNLSYNNTGISDDENDEEDIYMHDVNSASKSESDSQIVTPGELVTDDPIWMRGHGTYFLDNMTYSSVAGTVSRVNRLLSVIPLKGRYAPETGDHVVGRIAEVGNKRWKVDIGGKQHAVLMLGSVNLPGGILRRKSESDELQMRSFLKEGDLLNAEVQSLFQDGSASLHTRSLKYGKLRNGMFCQVPSSLIVRAKNHTHNLPGNITVVLGVNGYIWLRKTSQMDLARDTPSANNSSSIKSTGPTGAVSLNPSITRLEEESSWQIYSDENDPSISNNIRQAICRYANVIKALAFCEIGITQQRIVSAYEASMVYSNVGELIEKNVMESIGSDILTAEKMRGNGN
As for B1, the binding result is reported as “binds”.

B2: Rrp40 (natural protein, S. cerevisiae, UniProt Q08285 1-240, looked up)
chain: MSTFIFPGDSFPVDPTTPVKLGPGIYCDPNTQEIRPVNTGVLHVSAKGKSGVQTAYIDYSSKRYIPSVNDFVIGVIIGTFSDSYKVSLQNFSSSVSLSYMAFPNASKKNRPTLQVGDLVYARVCTAEKELEAEIECFDSTTGRDAGFGILEDGMIIDVNLNFARQLLFNNDFPLLKVLAAHTKFEVAIGLNGKIWVKCEELSNTLACYRTIMECCQKNDTAAFKDIAKRQFKEILTVKEE
As for B2, the binding result is “binds”.

B3: Csl4 (natural protein, S. cerevisiae, UniProt P53859 1-292, looked up)
chain: MACNFQFPEIAYPGKLICPQYGTENKDGEDIIFNYVPGPGTKLIQYEHNGRTLEAITATLVGTVRCEEEKKTDQEEEREGTDQSTEEEKSVDASPNDVTRRTVKNILVSVLPGTEKGRKTNKYANNDFANNLPKEGDIVLTRVTRLSLQRANVEILAVEDKPSPIDSGIGSNGSGIVAAGGGSGAATFSVSQASSDLGETFRGIIRSQDVRSTDRDRVKVIECFKPGDIVRAQVLSLGDGTNYYLTTARNDLGVVFARAANGAGGLMYATDWQMMTSPVTGATEKRKCAKPF
Consider B3, for which the binding result was “binds”.
